{"source": "paper PMC12808597", "about": "(2025)", "binders": {"B1": {"name": "GLP-1R endogenously expressed in INS-1 832/3 clonal rat β-cells (receptor)", "chain": "GPRPQGATVSLSETVQKWREYRHQCQRFLTEAPLLATGLFCNRTFDDYACWPDGPPGSFVNVSCPWYLPWASSVLQGHVYRFCTAEGIWLHKDNSSLPWRDLSECEESKQGERNSPEEQLLSLYIIYTVGYALSFSALVIASAILVSFRHLHCTRNYIHLNLFASFILRALSVFIKDAALKWMYSTAAQQHQWDGLLSYQDSLGCRLVFLLMQYCVAANYYWLLVEGVYLYTLLAFSVFSEQRIFKLYLSIGWGVPLLFVIPWGIVKYLYEDEGCWTRNSNMNYWLIIRLPILFAIGVNFLVFIRVICIVIAKLKANLMCKTDIKCRLAKSTLTLIPLLGTHEVIFAFVMDEHARGTLRFVKLFTELSFTSFQGFMVAVLYCFVNNEVQMEFRKSWERWRLERLNIQRDSSMKPLKCPTSSVSSGATVGSSVYAATCQNSCS"}, "B2": {"name": "mouse glucagon-like peptide-1 receptor, untagged (receptor)", "chain": "GPRPQGTTVSLSETVQKWREYRRQCQRFLTEAPLLATGLFCNRTFDDYACWPDGPPGSFVNVSCPWYLPWASSVLQGHVYRFCTAEGLWLHKDNSSLPWRDLSECEESKRGERNFPEEQLLSLYIIYTVGYALSFSALVIASAILVGFRHLHCTRNYIHLNLFASFILRALSVFIKDAALKWMYSTAAQQHQWDGLLSYQDSLGCRLVFLLMQYCVAANYYWLLVEGVYLYTLLAFSVFSEQRIFKLYLSIGWGVPLLFVIPWGIVKYLYEDEGCWTRNSNMNYWLIIRLPILFAIGVNFLIFIRVICIVVSKLKANLMCKTDIKCRLAKSTLTLIPLLGTHEVIFAFVMDEHARGTLRFIKLFTELSFTSFQGLMVAILYCFVNNEVQMEFRKCWERWRLEHLNIQRDCSMKPLKCPTSSVSSGATVGSSVYAATCQSSYS"}, "B3": {"name": "human glucagon-like peptide-1 receptor, untagged (receptor)", "chain": "RPQGATVSLWETVQKWREYRRQCQRSLTEDPPPATDLFCNRTFDEYACWPDGEPGSFVNVSCPWYLPWASSVPQGHVYRFCTAEGLWLQKDNSSLPWRDLSECEESKRGERSSPEEQLLFLYIIYTVGYALSFSALVIASAILLGFRHLHCTRNYIHLNLFASFILRALSVFIKDAALKWMYSTAAQQHQWDGLLSYQDSLSCRLVFLLMQYCVAANYYWLLVEGVYLYTLLAFSVLSEQWIFRLYVSIGWGVPLLFVVPWGIVKYLYEDEGCWTRNSNMNYWLIIRLPILFAIGVNFLIFVRVICIVVSKLKANLMCKTDIKCRLAKSTLTLIPLLGTHEVIFAFVMDEHARGTLRFIKLFTELSFTSFQGLMVAILYCFVNNEVQLEFRKSWERWRLEHLHIQRDSSMKPLKCPTSSLSSGATAGSSMYTATCQASCS"}}, "key": {"[1]": {"target": "exendin-phe1 Cy5 conjugate (Cy5 fluorophore (conjugation position shown in Figure 2A))"}, "[2]": {"target": "exendin-phe1 tetramethylrhodamine conjugate (tetramethylrhodamine (TMR) fluorophore (conjugation position shown in Figure 2A))"}, "[3]": {"target": "exendin-asp3 Cy5 conjugate (Cy5 fluorophore (conjugation position shown in Figure 2A))"}, "[4]": {"target": "exendin-asp3 tetramethylrhodamine conjugate (tetramethylrhodamine (TMR) fluorophore (conjugation position shown in Figure 2A))"}}, "data": [{"binder": "B1", "values": [{"measurement": "Kd", "setting": "[1]", "value": 0.7, "unit": "nM"}, {"measurement": "Kd", "setting": "[2]", "value": 12.3, "unit": "nM"}]}, {"binder": "B2", "values": [{"measurement": "Kd", "setting": "[3]", "value": 2.7, "unit": "nM"}, {"measurement": "Kd", "setting": "[4]", "value": 5.9, "unit": "nM"}, {"measurement": "Kd", "setting": "[2]", "value": 6.7, "unit": "nM"}]}, {"binder": "B3", "values": [{"measurement": "Kd", "setting": "[3]", "value": 2.8, "unit": "nM"}, {"measurement": "Kd", "setting": "[2]", "value": 18.5, "unit": "nM"}]}]}
